Data: article PMC5651818, “VPS18 recruits VPS41 to the human HOPS complex via a RING–RING interaction” (Biochemical Journal, 2017)

Molecular target: T1, His-tagged VPS18 RING domain (residues 842–973) (human, UniProt Q9P253 842-973)
T1 construct: Vector pOPTnH; monomeric by SEC-MALS; also called VPS18 RING H6; VPS18H6; source: E. coli Rosetta2(DE3) pLysS, purified (Ni-NTA, SEC); not shown: LysHis6, C-terminal, kept
T1 sequence (looked up): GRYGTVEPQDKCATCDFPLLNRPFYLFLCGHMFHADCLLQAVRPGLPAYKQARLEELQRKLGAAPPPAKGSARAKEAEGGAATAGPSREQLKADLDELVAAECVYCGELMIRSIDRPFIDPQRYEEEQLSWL
Experiment: SEC-MALS; Superdex 75 10/300, room temperature, 20 mM Tris (pH 7.5), 150 mM NaCl, 0.5 mM EDTA; complex formed from 0.48 mg/ml VPS41 RING and 0.68 mg/ml VPS18 RING H6 on ice for 15 min
Settings: both partners purified

stoichiometry N: 1
B1: tag-free VPS41 RING domain (residues 778–854) (domain or fragment, human, UniProt P49754 778-854, looked up)
chain: TQMKGVLVDEENICESCLSPILPSDAAKPFSVVVFHCRHMFHKECLPMPSMNSAAQFCNICSAKNRGPGSAILEMKK
notes: monomeric by SEC-MALS; also called untagged VPS41 RING; not shown: GST, N-terminal, cleaved
